From US20240391996A1 (TAISHO PHARMACEUTICAL, published 2024)
Like-named read-outs stand apart in the source and are kept apart here.

T1: prolactin (PRL) (BBT Boster Immunoleader) (human, UniProt P01236 29-227)
T1 construct: also called human prolactin; GH-analogous protein
T1 sequence (looked up): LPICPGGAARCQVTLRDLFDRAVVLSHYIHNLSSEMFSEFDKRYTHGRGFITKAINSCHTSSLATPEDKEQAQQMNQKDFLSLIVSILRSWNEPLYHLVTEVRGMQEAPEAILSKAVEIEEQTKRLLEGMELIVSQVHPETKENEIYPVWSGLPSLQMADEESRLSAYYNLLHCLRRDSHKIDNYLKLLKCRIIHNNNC

B1: anti-GH mouse mAb 13H02 (antibody, mouse IgG2a, V domains shown)
VH: QGQMQQSGGELVNPGSSVKMSCKTSGFTFTSSEISWLKQKPGQSLEWIAWIYPGTGSSKFNQKFTGKAQLTAETSSSTAYMQLSSLTSEDSAIYYCARRGFFGGSFDYWGQGTTLTISS
VL: QIVLAQSPAIMSASLGERVTMTCTATSSVSSSYLHWYQQKPGSSPKLWIYSTSNLASGVPARFSGSGSGTSYSLTISSMEAEDAATYYCHQYHHSPPTFGAGTKLELK
notes: also called parent mouse antibody (13H02)
B2: recombinant anti-GH mouse-human chimeric mAb (Ch-13H02) (antibody, human IgG1, V domains shown)
VH: B1 VH
VL: B1 VL
notes: also called Ch-13H2; anti-GH chimeric antibody
B3: recombinant anti-GH humanized antibody (Hu-13H02) (antibody, human IgG1, V domains shown)
VH: QVQMVQSGAEVKKPGASVKVSCKASGFTFTSSEISWLRQAPGQRLEWIAWIYPGTGSSKFNQKFTGKATLTADTSASTAYMELSSLRSEDTAVYYCARRGFFGGSFDYWGQGTTVTVSS
VL: DIQLTQSPSFLSASVGDRVTITCTATSSVSSSYLHWYQQKPGKAPKLWIYSTSNLASGVPSRFSGSGSGTEFTLTISSLQPEDFATYYCHQYHHSPPTFGGGTKVEIK
notes: also called humanized 13H02
B4: anti-GH humanized antibody Fc mutant (Hu-13H02m) (antibody, human IgG1, kappa, V domains shown)
VH: B3 VH
VL: DIQLTQSPSFLSASVGDRVTITCTATSSVSSSYLHWYQQKPGKAPKLWIYSTSNLASGVPSRFSGSGSGTEFTLTISSLQPEDFATYYCHQYHHSPPTFGGGTKVEIKR
notes: also called Fc variant of Hu-13H02

Legend:
[1] = molecular target: T2, recombinant human GH (Pharmaceutical and Medical Device Regulatory Science Society of Japan) (human, UniProt P01241 27-217); experiment: cell-based or functional assay
[2] = molecular target: T2, recombinant human GH (Pharmaceutical …); experiment: GH-GHR binding inhibition ELISA: biotin-labeled GH (5.5 ng/mL) on captured GHR-hFc, antibody varied
Experimental: The GH-GHR binding inhibitory activity was measured by calculating the inhibition rate of binding signal of biotin-labeled GH to GHR extracellular region protein-human Fc fusion (GHR-hFc) which was immobilized on an ELISA plate via anti-human Fcγ mouse antibody. The biotin-labeled GH was prepared by labeling recombinant GH with EZ-Link Micro NHS-PEG4-Biotinylation kit (Thermo Fisher Scientific Inc.). The specific method is as follows. Anti-human Fcγ mouse antibody (Jackson ImmunoResearch Laboratories, Inc.) diluted to 1 μg/mL PBS was immobilized at 50 μL/well on a 96-well half-area immunoplate, and the plate was blocked with PBS comprising 1% BSA. Next, GHR-hFc (R&D Systems, Inc.) diluted with assay buffer (PBS comprising 0.2% BSA and 0.05% Tween 20) to 0.1 μg/mL was added at 50 μL/well to be captured on the plate. The plate was washed with washing buffer (PBS comprising 0.05% Tween 20), followed by mixing the equivalent amount of biotin-labeled GH diluted with assay buffer to final concentration of 5.5 ng/mL and a sample (anti-GH mouse mAb-comprising sample) diluted with assay buffer, and adding the resultant mixture at 50 μL/well, and the plate was left still at room temperature for 2 hours. […] The reaction was stopped by adding an aqueous solution of 0.5 mol/L H₂SO₄, and then the absorbance at 450 nm was measured with a plate reader.

[3] = molecular target: T1, prolactin (PRL) (BBT Boster …); experiment: competitive ELISA on immobilised human GH; IC50 (human GH)/IC50 (PRL) x 100
Experimental: (§1) IC₅₀ (nmol/L) for each of the anti-GH antibodies was determined by concentration-dependent curves of human GH and GH-analogous protein. The cross-reactivity to the GH-analogous protein was calculated by the following formula 3.

[4] = molecular target: T2, recombinant human GH (Pharmaceutical …); experiment: SPR (BIACORE 8K+), antibody captured by anti-human IgG (Fc) on CM5 chip, GH as analyte
Experimental: (§2) The binding properties of the recombinant anti-GH humanized antibody (Hu-13H02) and the Fc mutant thereof (Hu-13H02m) prepared in Example 11, and the chimeric antibody (Ch-13H02) prepared in Example 8 to the human GH (Pharmaceutical and Medical Device Regulatory Science Society of Japan) and the monkey GH (Example 3) were measured with SPR using BIACORE 8K+ (GE Healthcare Inc.). The antibody samples (1 μg/mL) of the three antibodies (Hu-13H02, Hu-13H02m, and Ch-13H02) were captured by anti-human IgG (Fc) antibody immobilized on a CM5 sensor chip, respectively. Next, the human GH ranging from 0.13 to 8.0 nmol/L, or the monkey GH ranging from 0.50 to 32 nmol/L was added to calculate binding and dissociation parameters.

[5] = molecular target: recombinant cynomolgus monkey GH (cynomolgus monkey); experiment: as above
Experimental: as §2

[6] = molecular target: T2, recombinant human GH (Pharmaceutical …); experiment: cell-based or functional assay; remark: listed apart in the source
[7] = molecular target: recombinant cynomolgus monkey GH (cynomolgus monkey); experiment: cell-based or functional assay
[8] = molecular target: T3, placental lactogen (PL) (Protein Laboratories Rehovot Ltd.) (human, UniProt P0DML2 27-217); experiment: competitive ELISA on immobilised human GH; IC50 (human GH)/IC50 (PL) x 100
T3 construct: also called human placental lactogen; GH-analogous protein
Experimental: as §1

[9] = molecular target: T2, recombinant human GH (Pharmaceutical …); experiment: cell-based or functional assay; remark: listed apart in the source

Sequence of recombinant cynomolgus monkey GH (cynomolgus monkey) (P33093 27-217): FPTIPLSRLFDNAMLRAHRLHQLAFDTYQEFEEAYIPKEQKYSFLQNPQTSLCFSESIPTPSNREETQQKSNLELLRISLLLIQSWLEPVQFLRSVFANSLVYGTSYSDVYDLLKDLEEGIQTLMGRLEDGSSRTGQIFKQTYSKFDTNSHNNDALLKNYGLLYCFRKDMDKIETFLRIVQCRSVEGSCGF
T3 sequence (P0DML2 27-217 limits assumed): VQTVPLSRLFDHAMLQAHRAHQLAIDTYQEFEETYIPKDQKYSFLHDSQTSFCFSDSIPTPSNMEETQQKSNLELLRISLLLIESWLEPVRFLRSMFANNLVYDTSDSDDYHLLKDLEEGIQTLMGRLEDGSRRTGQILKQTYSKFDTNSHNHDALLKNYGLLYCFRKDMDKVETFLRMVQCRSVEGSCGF
T2 sequence (P01241 27-217 limits assumed): as the sequence (P33093 27-217) above, with T105A, Y107D, D109N, S133P, N153D, I173V counted along it

| Binder | GH-dependent Nb2 cell proliferation inhibitory activity (IC50) [1] [nM] | IC50 [2] [nM] | cross-reactivity [3] [%] | Kd [4] [nM] | koff [4] [s⁻¹] | kon [4] [M⁻¹ s⁻¹] | Kd [5] [nM] | koff [5] [s⁻¹] | kon [5] [M⁻¹ s⁻¹] | Neutralizing activity in GH-dependent Nb2 cell proliferation inhibition assay (IC50) [6] [nM] | Neutralizing activity in GH-dependent Nb2 cell proliferation inhibition assay (IC50) [7] [nM] | cross-reactivity [8] [%] | GH-dependent Nb2 cell proliferation inhibitory activity (IC50) [9] [nM] |
| --- | --- | --- | --- | --- | --- | --- | --- | --- | --- | --- | --- | --- | --- |
| B1 | 0.00336 | 0.0653 | – | – | – | – | – | – | – | – | – | – | – |
| B2 | – | – | < 1 | 0.012 | 2.4e-05 | 1.9e+06 | 0.074 | 3.4e-05 | 450000 | 0.00265 | 0.0136 | < 1 | 0.00627 |
| B3 | – | – | < 1 | – | – | – | 0.13 | 6.2e-05 | 470000 | – | 0.048 | < 1 | – |
| B4 | – | – | < 1 | – | – | – | 0.13 | 6.9e-05 | 520000 | – | 0.0301 | < 1 | – |
